From the RNAGym collection of RNA variant scans (doi:10.1073/pnas.2313332121)

B1: TPR t1 (parent)
chain: GACCAAUCUGCCCUCAGAGCUCGAGAACAUCUUCGGAUGCAGAGGAGGCAGGCUUCGGUGGCGCGAUAGCGCCAACGUCCUCAACCUCCAAUGCAUCCCACCACAUGAUGAUGCCUGAAGAGCCUUGGUUUUUUG

Variants of: B1
Assay: polymerase ribozyme fitness, log enrichment relative to wild type (log ratio); higher = more active; in vitro selection for triplet polymerase activity
Procedure, shortened: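 A single round of triplicate in vitro selection, including frozen incubation at −7 °C, was applied to PCR-built, transcribed mutant libraries of each subunit of a heterodimeric triplet polymerase ribozyme. Illumina sequencing of input and output libraries retained genotypes with ≥10 input reads and ≥1 read per output. Fitness is the base-2 logarithm of genotype enrichment divided by wild-type enrichment, from inverse-variance-weighted replicate averages.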

| Variant | polymerase ribozyme fitness (log ratio) |
| --- | --- |
| GACCAAUCUGCCCUCAGAGCUCGAGAACAUCUUCGGAUGCAGAGGAGGCAGGCUUCGGUGGCGCGAUAGCGGCAACGUCCUCAACCUCCAAUGCAUCCCACCACAUGAUGAUGCCUCAAGAGCCUUGGUGUUUUG [C72G G117C U130G] | -4.4 |
| GACCAAUCUGCCCUCAGAGCUCGAGAACAUCUUCGGAUGCAGAGGAGGCAGGCUUCGGUGGCGCGAUAGCGGCAACGCCCUCAACCUCCAAUGCAUCCCACCACAUGAAGAUGCCUGAAGAGCCUUGGUUUUUUG [C72G U78C U109A] | -6.55 |
| GACCAAUCUGCCCUCAGAGCUCGAGAACAUCUUCGGAUGCAGAGGAGGCAGGCUUCGGUGGCGCGAUAGCGGCAACGUCCUCAACCUCCAAUGCAUCCCAUCACAUGAUGAUGCCUGAAGAGCCUUGGUUUUUUG [C72G C101U] | -0.7 |
| GACCAAUCUGCCCUCAGAGCUCGAGAACAUCUUCGGAUGCAGAGGAGGCAGGCUUCGGUGGCGCGAUAGCGGCAACGUCCUCAACCUCCAAUGCAUCCCAACACAUGAUGAUGCCUGAAGAGCCUUGGUUUUUUG [C72G C101A] | -0.799 |
| GACCAAUCUGCCCUCAGAGCUCGAGAACAUCUUCGGAUGCAGAGGAGGCAGGCUUCGGUGGCGCGAUAGCGACAACGUCCUCAACCUCCAAUGCAUCCCACCACAUGAUGAUGCCUGAAGAGCCUUGGUAUUUUG [C72A U130A] | -0.443 |
| GACCAAUCUGCCCUCAGAGCUCGAGAACAUCUUCGGAUGCAGAGGAGGCAGGCUUCGGUGGCGCGAUAGCGGCAACGUCCUAAACCUCCAAUGCAUCCCACCACAUGAUGAUGCCUGAAGAGCCUUGGUUUUUUG [C72G C82A] | -1.18 |
| GACCAAUCUGCCCUCAGAGCUCGAGAACAUCUUCGGAUGCAGAGGAGGCAGGCUUCGGUGGCGCGAUAGCGGCAACGUCCUGAACCUCCAAUGCAUCCCACCACAUGAUGAUGCCUGAAGAGCCUUGGUUUUUUG [C72G C82G] | -1 |
| GACCAAUCUGCCCUCAGAGCUCGAGAACAUCUUCGGAUGCAGAGGAGGCAGGCUUCGGUGGCGCGAUAGCGGCAACGUCCUCAACCUCCAAUGCAUCCCACCACAUGAUGCUGCCUGAAGAGCCUUGGUUUUUUG [C72G A111C] | -0.642 |
| GACCAAUCUGCCCUCAGAGCUCGAGAACAUCUUCGGAUGCAGAGGAGGCAGGCUUCGGUGGCGCGAUAGCGGCAACGUCCUAAAACUCCAAUGCUUCCCACCACAUGAUGAUGCCUGAAGAGCCUUGGUUUUUUG [C72G C82A C85A A95U] | -4.18 |
| GACCAAUCUGCCCUCAGAGCUCGAGAACAUCUUCGGAUGCAGAGGAGGCAGGCUUCGGUGGCGCGAUAGCGGCAACGUCCUCAACCUCCAAUACAUCCCACCACAUGAUGAUGCCUGAAGAGCCUUGGUUUUUUG [C72G G93A] | -0.585 |
| GACCAAUCUGCCCUCAGAGCUCGAGAACAUCUUCGGAUGCAGAGGAGGCAGGCUUCGGUGGCGCGAUAGCGGCAACUUCCUCAAUCUCCAAUGCAUCCCACCACAAGAAGAUGCCUGAAGAGCCUUGGUUUUUUG [C72G G77U C85U U106A U109A] | -7.01 |
| GACCAAUCUGCCCUCAGAGCUCGAGAACAUCUUCGGAUGCAGAGGAGGCAGGCUUCGGUGGCGCGAUAGCGGCAACGUCCUCAACCUUCAAUGCAUCCCACCACAUGAUGAUGCCUGAAGAGCCUUGGAUUUUUG [C72G C88U U129A] | -0.881 |
| GACCAAUCUGCCCUCAGAGCUCGAGAACAUCUUCGGAUGCAGAGGAGGCAGGCUUCGGUGGCGCGAUAGCGGCAACGUCCUCAACCUCCAAUGCAUCCCACCACAUGAUGUUGCCUGAAGAGCCUUGGUGUUUUG [C72G A111U U130G] | -4.27 |
| GACCAAUCUGCCCUCAGAGCUCGAGAACAUCUUCGGAUGCAGAGGAGGCAGGCUUCGGUGGCGCGAUAGCGGCAACGUCCCCAACCUCCAAUGCAUCCCAUCACAUGAUGAUGCCUGAAGAGCCUUGGUUUUUUG [C72G U81C C101U] | -0.875 |
| GACCAAUCUGCCCUCAGAGCUCGAGAACAUCUUCGGAUGCAGAGGAGGCAGGCUUCGGUGGCGCGAUAGCGGCAACGUCCUUAACCUCCAAUGCAUCCCACAACAUGAUGAUGCCUGAAAAGCCUUGGUUUUUUG [C72G C82U C102A G120A] | -1.89 |
| GACCAAUCUGCCCUCAGAGCUCGAGAACAUCUUCGGAUGCAGAGGAGGCAGGCUUCGGUGGCGCGAUAGCGGCAACGUCGUCAACCUCCAAUGCAUCCCACCACAUGAUGAUGCCUGAAGAGCCUUGGUCUUUUG [C72G C80G U130C] | -5.89 |
| GACCAAUCUGCCCUCAGAGCUCGAGAACAUCUUCGGAUGCAGAGGAGGCAGGCUUCGGUGGCGCGAUAGCGGCAACGUCCUCAACCUCCAAUGCAUCCCACCACAUAAUGAUGCCUGAAGAGCCUUGGUUUUUUG [C72G G107A] | -4.9 |
| GACCAAUCUGCCCUCAGAGCUCGAGAACAUCUUCGGAUGCAGAGGAGGCAGGCUUCGGUGGCGCGAUAGCGGCAACGUCCUCAACCUCCAAUGCAUCCCACCACAUGAUGAUGCCUAAAGAGCCUUGGUUUUUUG [C72G G117A] | -1.8 |
| GACCAAUCUGCCCUCAGAGCUCGAGAACAUCUUCGGAUGCAGAGGAGGCAGGCUUCGGUGGCGCGAUAGCGGCAACGUCCUCAACCUCCAAUGCAUCCCACCACAUGAUGAUGCCUUAAGAGCCUUGGUUUUUUG [C72G G117U] | -2.41 |
| GACCAAUCUGCCCUCAGAGCUCGAGAACAUCUUCGGAUGCAGAGGAGGCAGGCUUCGGUGGCGCGAUAGCGGCAACGUCCUCAACGUCCAAUGCAUCCCACCACAUGAUGAUGCCUGAAGUGCCAUGGUUUUUUU [C72G C86G A121U U125A G135U] | -2.76 |
| GACCAAUCUGCCCUCAGAGCUCGAGAACAUCUUCGGAUGCAGAGGAGGCAGGCUUCGGUGGCGCGAUAGCGGCAACGUCCAGAACCUCCAAUGCAUCCCACCACAUGAUGAUGCCUGAAGAGCCUUGCUUUUUUG [C72G U81A C82G G128C] | -4.54 |
